From patent US20260365696A1, “INHIBITORS OF PTP1B / NCK1 INTERACTION AND METHODS OF MAKING AND USING SAME” (Radella Pharmaceuticals LLC, priority 2023, published 2026)
Where two headings read alike, the source gives them in different places. Non-standard residues stand in square brackets, D forms with d. pGlu = O=C1CC[C@@H](C(=O)O)N1

T1: NCK1 SH3-2 domain (human)
T1 chain: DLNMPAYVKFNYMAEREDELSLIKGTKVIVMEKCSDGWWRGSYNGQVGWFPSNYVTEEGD


What was measured:
Test in all cases: ITC
NCK1 SH3-2 domain [1] = biological target: T1, NCK1 SH3-2 domain
NCK1 SH3-2 domain [2] = biological target: T1, NCK1 SH3-2 domain
NCK1 SH3-2 domain [3] = biological target: T1, NCK1 SH3-2 domain
NCK1 SH3-2 domain [4] = biological target: T1, NCK1 SH3-2 domain
NCK1 SH3-2 domain [5] = biological target: T1, NCK1 SH3-2 domain
NCK1 SH3-2 domain [6] = biological target: T1, NCK1 SH3-2 domain
NCK1 SH3-2 domain [7] = biological target: T1, NCK1 SH3-2 domain

Binder | Kd (NCK1 SH3-2 domain [1]) [µM] | binding result (NCK1 SH3-2 domain [5]) | other results
Ac-APRPPKR-NH2 [MH047] | < 300 |  | Kd (NCK1 SH3-2 domain [2]): < 300 µM; Kd (NCK1 SH3-2 domain [3]): < 300 µM
Ac-PPRPPKR-NH2 [MD18] | < 300 |  | Kd (NCK1 SH3-2 domain [4]): < 193 µM
Ac-SPAKGEPSLPEK-NH2 [MH133] |  | no binding | 
Ac-PAVPPRP-NH2 [MH082] |  | no binding | 
H-PAVPPRP-NH2 [MH081] |  | no binding | 
Ac-PRPPKR-NH2 [MD20] | < 300 |  | Kd (NCK1 SH3-2 domain [4]): < 193 µM; Kd (NCK1 SH3-2 domain [6]): < 300 µM
[pGlu]RPPKR-NH2 [MH044] |  |  | binding result (NCK1 SH3-2 domain [7]): no binding
